Measured values reported in article PMC6486541 (Nucleic Acids Research, 2019).
Numbering of substitutions follows the chain as printed.

B1: OsWRKY45–DBD (DNA binding domain of OsWRKY45, residues 104–182) (domain or fragment)
chain: TQQSSGNSVVVKNLDDGQAWRKYGQKEIQNSKHPKAYFRCTHKYDQLCTAQRQVQRCDDDPASYRVTYIGEHTCRDPAT
B2: DNA-1 (W-box DNA) (dsDNA)
DNA 1: GATATTTGACCGGA
DNA 2: TCCGGTCAAATATC
B3: MUT11T (dsDNA)
DNA 1: GATATTTGACTGGA
DNA 2: TCCAGTCAAATATC
B4: MUT11A (dsDNA)
DNA 1: GATATTTGACAGGA
DNA 2: TCCTGTCAAATATC
B5: MUT7C (dsDNA)
DNA 1: GATATTCGACCGGA
DNA 2: TCCGGTCGAATATC
B6: MUT8A (dsDNA)
DNA 1: GATATTTAACCGGA
DNA 2: TCCGGTTAAATATC
B7: MUT9C (dsDNA)
DNA 1: GATATTTGCCCGGA
DNA 2: TCCGGGCAAATATC
B8: MUT10A (dsDNA)
DNA 1: GATATTTGAACGGA
DNA 2: TCCGTTCAAATATC

How the values were obtained:
AUC = molecular target: the molecule itself; assay: AUC
[1] = molecular target: T1, OsWRKY45-DBD (OsWRKY45-1) (Oryza sativa Japonica subspecies, UniProt Q5W6D6 104-182); assay: BLI
T1 sequence: B1 chain

[2] = molecular target: T2, OsWRKY45-DBD L150M (= OsWRKY45-2-DBD) (Oryza sativa Japonica subspecies, UniProt Q5W6D6 104-182, L150M); assay: BLI
T2 sequence: B1 chain with L47M

OsWRKY45-DBD R142A = molecular target: T3, OsWRKY45-DBD R142A (Oryza sativa Japonica subspecies, UniProt Q5W6D6 104-182, R142A); assay: BLI
T3 sequence: B1 chain with R39A

[3] = molecular target: T1, OsWRKY45-DBD (OsWRKY45-1); assay: EMSA

Binder | binding result [3] | also measured
B1 | – | stoichiometry N (AUC): 2
B2 | – | Kd [1]: 4.6 µM; Kd [2]: 7.7 µM; Kd (OsWRKY45-DBD R142A): 13.8 µM
B3 | binds | –
B4 | no binding | –
B5 | no binding | –
B6 | no binding | –
B7 | no binding | –
B8 | no binding | –
